Measurements from patent US20240376151A1, “STAPLED PEPTIDES AND METHODS THEREOF” (FOG PHARMACEUTICALS, INC., priority 2022, published 2024).
Numbered stars: 1 amine (or outer) side, 2 acyl side, 3 side chain; on linkers, the order of the positions; unused ones are H or OH. Bridge positions count the residues as written; N and C are the ends. Ends that are not written are not given here. Phenylene(1,4-NHCOCH2)2 = O=C(C[*:1])Nc1ccc(NC(=O)C[*:2])cc1

What was measured:
[1] = biological target: T1, WWP2^HECT (Homo sapiens, UniProt O00308); assay: Naive Library Presenter Screening (phage, NGS), WWP2^HECT; format: binding; conditions: for interaction data at Target Concentration 1000: WWP2 target concentration 1000 nM
T1 construct: GST-TEV (N, cleaved yes); made in house; host or cells: Escherichia coli BL21 (DE3)

[2] = biological target: CDK2 (Homo sapiens, UniProt P24941); assay: Phage Library Screening with NGS, CDK2; format: binding; design: Full length CDK2 (residues 1-298) with an N-terminal GST-3C-6×his-TEV tag; GST-3C-6×his-TEV (N, cleaved yes); made in house; host or cells: Sf9 (Bac-to-Bac baculovirus); conditions: for phage screen counts, Target Concentration 10: CDK2, target concentration 10; for phage screen counts, Target Concentration 30: CDK2, target concentration 30; for phage screen counts, Target Concentration 100: CDK2, target concentration 100; for phage screen counts, Target Concentration 300: CDK2, target concentration 300
[3] = CDK2, target concentration 1000, first column
[4] = CDK2, target concentration 1000, second column

T1 sequence (O00308 492-865): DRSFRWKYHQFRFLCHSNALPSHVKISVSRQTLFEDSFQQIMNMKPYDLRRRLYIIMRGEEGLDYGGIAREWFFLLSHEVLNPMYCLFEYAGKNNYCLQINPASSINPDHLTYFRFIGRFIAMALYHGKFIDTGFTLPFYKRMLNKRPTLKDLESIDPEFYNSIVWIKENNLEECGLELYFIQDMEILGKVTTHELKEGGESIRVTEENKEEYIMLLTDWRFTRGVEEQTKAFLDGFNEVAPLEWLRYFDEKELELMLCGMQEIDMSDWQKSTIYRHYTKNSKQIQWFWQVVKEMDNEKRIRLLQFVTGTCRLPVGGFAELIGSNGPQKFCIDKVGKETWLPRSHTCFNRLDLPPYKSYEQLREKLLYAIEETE

| Sequence | interaction data at Target Concentration 10 ([1]; WWP2 target concentration 10 nM) | interaction data at Target Concentration 30 ([1]; WWP2 target concentration 30 nM) | interaction data at Target Concentration 100 ([1]; WWP2 target concentration 100 nM) | interaction data at Target Concentration 300 ([1]; WWP2 target concentration 300 nM) | interaction data at Target Concentration 1000 ([1]; first column) | interaction data at Target Concentration 1000 ([1]; second column) | phage screen counts, Target Concentration 10 [2] | phage screen counts, Target Concentration 30 [2] | phage screen counts, Target Concentration 100 [2] | phage screen counts, Target Concentration 300 [2] | phage screen counts, Target Concentration 1000 [2, 3] | phage screen counts, Target Concentration 1000 [2, 4] |
| --- | --- | --- | --- | --- | --- | --- | --- | --- | --- | --- | --- | --- |
| DPAANYCEAAADTCQFF (linker 7-14 via Phenylene(1,4-NHCOCH2)2 (inferred)) | 0 | 179 | 254 | 297 | 283 | 378 |  |  |  |  |  |  |
| DPAWWSCVIAAMECQDI (linker 7-14 via Phenylene(1,4-NHCOCH2)2 (inferred)) |  |  |  |  |  |  | 0 | 0 | 0 | 39 | 87 | 90 |
| DPAWWTCIIAALECEEQ (linker 7-14 via Phenylene(1,4-NHCOCH2)2 (inferred)) |  |  |  |  |  |  | 0 | 0 | 51 | 193 | 195 | 102 |
| DPAWWTCSVAAIQCWDS (linker 7-14 via Phenylene(1,4-NHCOCH2)2 (inferred)) |  |  |  |  |  |  | 0 | 0 | 10 | 69 | 119 | 243 |
| DPAWWVCAIAAIECSDV (linker 7-14 via Phenylene(1,4-NHCOCH2)2 (inferred); not fully specified (N-terminus, C-terminus)) |  |  |  |  |  |  | 38 | 634 | 2330 | 12368 | 7673 | 8315 |
| DPAWWVCAIAAMDCHEQ (linker 7-14 via Phenylene(1,4-NHCOCH2)2 (inferred)) |  |  |  |  |  |  | 0 | 0 | 0 | 139 | 216 | 422 |
| DPAWWVCAVAAIECQEY (linker 7-14 via Phenylene(1,4-NHCOCH2)2 (inferred)) |  |  |  |  |  |  | 3 | 47 | 258 | 1258 | 822 | 819 |
| DPAWWVCSIAAIECESS |  |  |  |  |  |  | 0 | 0 | 10 | 85 | 65 | 77 |
| DPAWYACIVAAVDCEHS (linker 7-14 via Phenylene(1,4-NHCOCH2)2 (inferred)) |  |  |  |  |  |  | 0 | 0 | 8 | 46 | 206 | 115 |
| DPAWYECIVAAIECVEY (linker 7-14 via Phenylene(1,4-NHCOCH2)2 (inferred)) |  |  |  |  |  |  | 0 | 0 | 79 | 131 | 54 | 115 |
| DPAWYECVVAAIECHAY (linker 7-14 via Phenylene(1,4-NHCOCH2)2 (inferred)) |  |  |  |  |  |  | 0 | 12 | 0 | 286 | 411 | 473 |
| ECLSAFFTCV (linker 2-9 via Phenylene(1,4-NHCOCH2)2 (inferred)) |  |  |  |  |  |  | 0 | 0 | 0 | 57 | 452 | 284 |
| FECLDAFFSC (linker 3-10 via Phenylene(1,4-NHCOCH2)2 (inferred); not fully specified (N-terminus, C-terminus)) |  |  |  |  |  |  | 0 | 0 | 0 | 49 | 982 | 405 |
| MACVDAFFSC (linker 3-10 via Phenylene(1,4-NHCOCH2)2 (inferred)) |  |  |  |  |  |  | 0 | 0 | 1 | 17 | 320 | 16 |
| PACVSAFFACL (linker 3-10 via Phenylene(1,4-NHCOCH2)2 (inferred)) |  |  |  |  |  |  | 0 | 0 | 0 | 0 | 151 | 19 |
| PCLDAFFYCVT (linker 2-9 via Phenylene(1,4-NHCOCH2)2 (inferred)) |  |  |  |  |  |  | 0 | 0 | 0 | 7 | 18 | 51 |
| PCLEAFFSCVY (linker 2-9 via Phenylene(1,4-NHCOCH2)2 (inferred)) |  |  |  |  |  |  | 0 | 0 | 0 | 61 | 314 | 257 |
| PCMDAFFSCVW (linker 2-9 via Phenylene(1,4-NHCOCH2)2 (inferred)) |  |  |  |  |  |  | 0 | 0 | 1 | 0 | 39 | 8 |
| PECLEAFFDCR (linker 3-10 via Phenylene(1,4-NHCOCH2)2 (inferred)) |  |  |  |  |  |  | 0 | 9 | 0 | 84 | 344 | 328 |
| PECLVAFFSCV (linker 3-10 via Phenylene(1,4-NHCOCH2)2 (inferred)) |  |  |  |  |  |  | 0 | 1 | 9 | 9 | 422 | 142 |
| PFECLSAFFSC (linker 4-11 via Phenylene(1,4-NHCOCH2)2 (inferred)) |  |  |  |  |  |  | 0 | 0 | 0 | 1 | 212 | 44 |
| PMACLSAFFTC (linker 4-11 via Phenylene(1,4-NHCOCH2)2 (inferred)) |  |  |  |  |  |  | 0 | 0 | 0 | 16 | 114 | 176 |
| PSCLSAFFSCY (linker 3-10 via Phenylene(1,4-NHCOCH2)2 (inferred)) |  |  |  |  |  |  | 0 | 1 | 0 | 14 | 722 | 485 |
| PTCLNAFFACE (linker 3-10 via Phenylene(1,4-NHCOCH2)2 (inferred)) |  |  |  |  |  |  | 0 | 0 | 0 | 1 | 109 | 35 |
| WSCLSAYFSC (linker 3-10 via Phenylene(1,4-NHCOCH2)2 (inferred)) |  |  |  |  |  |  | 0 | 0 | 0 | 0 | 19 | 189 |
| YECLEAFFNC (linker 3-10 via Phenylene(1,4-NHCOCH2)2 (inferred)) |  |  |  |  |  |  | 0 | 0 | 0 | 2 | 208 | 193 |
